Values quoted from earlier work in patent US20230313258A1, “CROSS-LINIKING METHODS” (The University of Bath, priority 2020, published 2023).

Biological target: dimeric AP-1 transcription factor (Homo sapiens, UniProt P05412)
Conditions: previously identified (Mason et al. 2006)

dimeric AP-1 transcription factor, sequence (P05412 whole entry): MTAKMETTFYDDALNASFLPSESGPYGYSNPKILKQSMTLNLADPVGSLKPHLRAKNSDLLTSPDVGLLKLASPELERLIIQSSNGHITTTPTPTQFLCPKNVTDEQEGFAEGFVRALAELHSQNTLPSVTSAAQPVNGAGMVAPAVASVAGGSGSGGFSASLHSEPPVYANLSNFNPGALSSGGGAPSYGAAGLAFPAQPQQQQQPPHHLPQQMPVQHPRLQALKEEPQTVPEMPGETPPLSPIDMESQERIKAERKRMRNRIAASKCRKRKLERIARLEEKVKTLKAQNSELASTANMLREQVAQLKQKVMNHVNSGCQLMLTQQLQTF

FosW: parent peptide, SEQ ID NO: 1, ASLDELQAEIEQLEERNYALRKEIEDLQKQLEKLGAP; previously identified inhibitor of AP-1
ability to dissociate AP-1 from its DNA binding site: able to dissociate the dimeric AP-1 transcription factor from its DNA binding site
